For assay [1], the target named is gastrin releasing peptide receptor (GRP-R) (human) (UniProt P30550). Put plainly: competition with 125I-universal ligand, receptor autoradiography on human tumour tissue.
In assay [2] the target is human neuromedin-B preferring receptor (NMB-R) (human) (UniProt P28336). The assay is described as above.
The target of assay [3] is gastrin releasing peptide receptor (GRP-R) (human) (UniProt P30550). Put plainly: competition with 67Ga-AMBA, PC-3 cells.
The target is the same in assay [4]. The experiment in a line: competition with 177Lu-AMBA, PC-3 cells.
Assay [5] shares this target. The experiment in a line: saturation binding, PC-3 cells, calculated from Bmax.
The target is the same in assay [6]. The experiment in a line: saturation binding of carrier-added radioligand, PC-3 cells, 4 C.

Chain of gastrin releasing peptide receptor (GRP-R) (human) (P30550 whole entry): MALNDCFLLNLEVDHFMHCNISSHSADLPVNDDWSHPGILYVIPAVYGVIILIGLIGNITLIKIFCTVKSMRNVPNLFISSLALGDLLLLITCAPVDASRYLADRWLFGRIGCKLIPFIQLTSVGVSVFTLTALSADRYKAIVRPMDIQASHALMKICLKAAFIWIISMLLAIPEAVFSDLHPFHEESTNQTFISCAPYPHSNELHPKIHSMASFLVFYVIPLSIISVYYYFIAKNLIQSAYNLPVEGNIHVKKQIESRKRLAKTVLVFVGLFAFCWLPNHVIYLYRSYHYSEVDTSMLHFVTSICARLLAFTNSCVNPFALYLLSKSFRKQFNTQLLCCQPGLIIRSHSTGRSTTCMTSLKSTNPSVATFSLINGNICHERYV
Chain of human neuromedin-B preferring receptor (NMB-R) (human) (P28336 whole entry): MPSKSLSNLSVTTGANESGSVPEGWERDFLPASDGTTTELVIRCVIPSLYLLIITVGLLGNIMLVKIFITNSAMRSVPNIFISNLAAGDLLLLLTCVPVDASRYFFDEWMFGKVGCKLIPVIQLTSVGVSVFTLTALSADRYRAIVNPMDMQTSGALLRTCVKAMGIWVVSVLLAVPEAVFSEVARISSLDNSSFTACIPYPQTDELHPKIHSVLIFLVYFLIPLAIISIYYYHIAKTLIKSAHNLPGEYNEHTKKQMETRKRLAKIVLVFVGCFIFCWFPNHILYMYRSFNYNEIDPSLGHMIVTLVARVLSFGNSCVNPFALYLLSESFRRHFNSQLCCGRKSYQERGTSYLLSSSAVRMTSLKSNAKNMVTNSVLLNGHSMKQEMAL

Consider “Universal ligand ([DTyr^6, βAla^11, Phe^13, Nle^14]-BBN(6-14)) (peptide)”, for which the figures for the IC50 in assay [1] and in assay [2] were 0.7 nM and 0.8 nM, respectively.
“Ga-AMBA (non-radioactive gallium complex of AMBA) (peptide)”: the concentration for a half-maximal effect (EC50) in assay [3] turned out to be 1 nM; in assay [4], 1.15 nM.
In the case of ^67Ga-AMBA (peptide), the Receptors/cell (receptors/cell) in assay [5] was 242000. In assay [6], this substance returned a Binding capacity (Bmax) (fmoles/1 × 10^6 cells) of 402 and a dissociation constant (Kd) of 0.46 nM.

For orientation: IC50 means the concentration needed to halve the response being measured. The EC50 is the concentration at which the effect is half-maximal. One may read the Kd as the concentration at which binding is half-saturated. Higher therefore signals lower affinity.
